# From the Immune Epitope Database (IEDB)
# Key:
# HLA-B*46:01 [1] = test: IEDB peptide-MHC binding, purified MHC/competitive/fluorescence; filed as Kd, often an IC50 or EC50 that approximates it; ≥ and ≤ were set here for values at or beyond the usual limits of such assays; conditions: source organism: SARS-CoV1
# HLA-C*03:03 = test: IEDB peptide-MHC binding, purified MHC/direct/fluorescence; filed as Kd, often an IC50 or EC50 that approximates it; ≥ and ≤ were set here for values at or beyond the usual limits of such assays; conditions: source organism: SARS-CoV1
# HLA-A*03:01 = test: as above
# HLA-C*12:03 = test: as above
# HLA-B*07:02 = test: as above
# HLA-A*31:01 = test: as above
# HLA-C*15:02 = test: as above; conditions: source organism: SARS-CoV1
# HLA-B*58:01 = test: as above
# HLA-A*01:01 = test: as above
# HLA-A*11:01 = test: as above
# HLA-B*40:01 = test: as above
# HLA-C*14:02 = test: as above; conditions: source organism: SARS-CoV1
# HLA-B*08:01 [2] = test: as above
# HLA-B*27:05 [3] = test: as above
# HLA-C*08:02 = test: as above
# HLA-B*15:01 = test: as above
# HLA-A*02:01 = test: as above
# HLA-A*69:01 = test: as above
# HLA-B*73:01 = test: as above; conditions: source organism: Brucella suis 1330
# HLA-B*44:02 = test: as above; conditions: source organism: Brucella melitensis
# HLA-A*26:01 = test: as above
# HLA-B*15:02 [4] = test: IEDB peptide-MHC binding, purified MHC/competitive/fluorescence; filed as Kd, often an IC50 or EC50 that approximates it; ≥ and ≤ were set here for values at or beyond the usual limits of such assays
# HLA-B*48:01 = test: IEDB peptide-MHC binding, purified MHC/direct/fluorescence; filed as Kd, often an IC50 or EC50 that approximates it; ≥ and ≤ were set here for values at or beyond the usual limits of such assays
# HLA-C*07:02 = test: as above; conditions: source organism: Kurkino virus
# HLA-C*06:02 = test: as above; conditions: source organism: Kurkino virus
# HLA-B*18:01 = test: as above
# HLA-B*46:01 [5] = test: as above
# HLA-B*27:03 = test: as above
# HLA-B*39:01 = test: as above
# HLA-B*51:01 = test: as above
# HLA-A*02:19 = test: as above
# HLA-A*02:16 = test: as above
# HLA-A*02:03 [6] = test: as above
# HLA-A*02:12 = test: as above
# HLA-B*57:01 = test: as above
# HLA-A*02:11 = test: as above; conditions: source organism: Yersinia pestis CA88-4125
# HLA-A*26:02 = test: IEDB peptide-MHC binding, purified MHC/competitive/fluorescence; filed as Kd, often an IC50 or EC50 that approximates it; ≥ and ≤ were set here for values at or beyond the usual limits of such assays; conditions: source organism: Influenza A virus H3N2
# HLA-B*08:01 [7] = test: as above; conditions: source organism: Influenza A virus H3N2
# HLA-B*27:05 [8] = test: as above; conditions: source organism: Influenza A virus H3N2
# HLA-A*02:03 [9] = test: as above; conditions: source organism: Influenza A virus H3N2
# HLA-B*15:02 [10] = test: IEDB peptide-MHC binding, purified MHC/direct/fluorescence; filed as Kd, often an IC50 or EC50 that approximates it; ≥ and ≤ were set here for values at or beyond the usual limits of such assays; conditions: source organism: H9N2 subtype Influenza A virus (A/swine/Korea/S83/2004(H9N2))
# HLA-A*68:02 = test: as above; conditions: source organism: H9N2 subtype Influenza A virus (A/swine/Korea/S83/2004(H9N2))
# HLA-B*15:17 = test: as above; conditions: source organism: H9N2 subtype Influenza A virus (A/swine/Korea/S83/2004(H9N2))
# [11] = source organism: Bacillus cereus
# [12] = source organism: Brucella melitensis
# [13] = source organism: Orthohantavirus dobravaense
# [14] = source organism: Coxiella burnetii Q321
# [15] = source organism: Yersinia enterocolitica subsp. enterocolitica 8081
# [16] = source organism: Yersinia pestis CA88-4125
# [17] = source organism: H9N2 subtype Influenza A virus (A/swine/Korea/S83/2004(H9N2))
sequence,measurement,setting,value
KSYEHQTPF,Kd,HLA-B*46:01 [1],0.0469 µM
same,Kd,HLA-C*03:03,0.035 µM
same,Kd,HLA-A*03:01; source organism: SARS-CoV1,0.0898 µM
same,Kd,HLA-C*12:03; source organism: SARS-CoV1,0.014 µM
same,Kd,HLA-B*07:02; source organism: SARS-CoV1,5.72 µM
same,Kd,HLA-A*31:01; source organism: SARS-CoV1,0.186 µM
same,Kd,HLA-C*15:02,0.011 µM
same,Kd,HLA-B*58:01; source organism: SARS-CoV1,0.088 µM
same,Kd,HLA-A*01:01; source organism: SARS-CoV1,≥ 27.1 µM
same,Kd,HLA-A*11:01; source organism: SARS-CoV1,0.837 µM
same,Kd,HLA-B*40:01; source organism: SARS-CoV1,≥ 91.4 µM
same,Kd,HLA-C*14:02,0.093 µM
same,Kd,HLA-B*08:01 [2]; source organism: SARS-CoV1,14.4 µM
same,Kd,HLA-B*27:05 [3]; source organism: SARS-CoV1,4.42 µM
same,Kd,HLA-C*08:02; source organism: SARS-CoV1,≥ 20 µM
same,Kd,HLA-B*15:01; source organism: SARS-CoV1,0.169 µM
YTLNDAPYI,Kd,HLA-A*02:01; [11],0.0381 µM
same,Kd,HLA-A*69:01; [11],0.0024 µM
same,Kd,HLA-C*08:02; source organism: Bacillus anthracis str. A0389,0.181 µM
RVISDGYFK,Kd,HLA-A*03:01; [12],0.395 µM
same,Kd,HLA-B*73:01,≥ 20 µM
same,Kd,HLA-B*07:02; [12],≥ 20 µM
same,Kd,HLA-A*31:01; [12],0.042 µM
same,Kd,HLA-B*44:02,≥ 20 µM
same,Kd,HLA-B*58:01; [12],≥ 20 µM
same,Kd,HLA-A*01:01; [12],≥ 20 µM
same,Kd,HLA-A*11:01; [12],0.0538 µM
same,Kd,HLA-A*02:01; [12],≥ 20 µM
same,Kd,HLA-B*40:01; [12],≥ 20 µM
same,Kd,HLA-A*26:01; [12],≥ 20 µM
same,Kd,HLA-B*08:01 [2]; [12],≥ 20 µM
same,Kd,HLA-A*69:01; [12],≥ 20 µM
same,Kd,HLA-B*27:05 [3]; [12],7.19 µM
same,Kd,HLA-B*15:01; [12],≥ 20 µM
LLRMFDHPF,Kd,HLA-B*15:02 [4]; source organism: Vibrio vulnificus YJ016,0.0209 µM
RRNDGVVQY,Kd,HLA-B*48:01; [13],≥ 20 µM
same,Kd,HLA-B*27:05 [3]; [13],0.146 µM
same,Kd,HLA-C*07:02,0.029 µM
same,Kd,HLA-C*06:02,0.061 µM
IAFTRLFTV,Kd,HLA-B*18:01; [14],≥ 20 µM
same,Kd,HLA-A*03:01; [14],≥ 20 µM
same,Kd,HLA-C*12:03; source organism: Coxiella burnetii RSA 493,≤ 0.001 µM
same,Kd,HLA-B*46:01 [5]; [14],≥ 20 µM
same,Kd,HLA-B*27:03; [14],≥ 20 µM
same,Kd,HLA-A*26:01; [14],≥ 20 µM
same,Kd,HLA-B*39:01; [14],≥ 20 µM
same,Kd,HLA-B*51:01; [14],3.24 µM
same,Kd,HLA-B*15:01; [14],≥ 20 µM
LAYLAGWII,Kd,HLA-A*02:19; [15],≥ 20 µM
same,Kd,HLA-B*18:01; [15],≥ 20 µM
same,Kd,HLA-A*03:01; [15],≥ 20 µM
same,Kd,HLA-B*46:01 [5]; [15],≥ 20 µM
same,Kd,HLA-B*27:03; [15],≥ 20 µM
same,Kd,HLA-A*02:01; [15],≥ 20 µM
same,Kd,HLA-A*26:01; [15],≥ 20 µM
same,Kd,HLA-A*02:16; [15],≥ 20 µM
same,Kd,HLA-A*02:03 [6]; [15],≥ 20 µM
same,Kd,HLA-A*02:12; [15],≥ 20 µM
same,Kd,HLA-B*39:01; [15],≥ 20 µM
same,Kd,HLA-B*51:01; [15],1.39 µM
same,Kd,HLA-B*15:01; [15],≥ 20 µM
LQLARDGMF,Kd,HLA-B*15:02 [4]; source organism: Brucella suis ATCC 23445,≥ 20 µM
KLLARFLFE,Kd,HLA-A*02:19; [16],≥ 20 µM
same,Kd,HLA-B*18:01; [16],≥ 20 µM
same,Kd,HLA-A*03:01; [16],≥ 20 µM
same,Kd,HLA-B*46:01 [5]; [16],≥ 20 µM
same,Kd,HLA-B*27:03; [16],≥ 20 µM
same,Kd,HLA-A*02:01; [16],≥ 20 µM
same,Kd,HLA-A*26:01; [16],≥ 20 µM
same,Kd,HLA-B*57:01; [16],≥ 20 µM
same,Kd,HLA-A*02:11,≥ 20 µM
same,Kd,HLA-A*02:16; [16],≥ 20 µM
same,Kd,HLA-A*02:03 [6]; [16],≥ 20 µM
same,Kd,HLA-A*02:12; [16],≥ 20 µM
same,Kd,HLA-B*39:01; [16],≥ 20 µM
same,Kd,HLA-B*51:01; [16],≥ 20 µM
same,Kd,HLA-B*15:01; [16],≥ 20 µM
FQKDAKVLF,Kd,HLA-A*26:02,≥ 20 µM
same,Kd,HLA-B*08:01 [7],≥ 20 µM
same,Kd,HLA-B*27:05 [8],3.34 µM
same,Kd,HLA-A*02:03 [9],≥ 20 µM
same,Kd,HLA-B*15:02 [10],1.72 µM
same,Kd,HLA-A*68:02,≥ 20 µM
same,Kd,HLA-B*07:02; [17],≥ 20 µM
same,Kd,HLA-A*31:01; [17],≥ 20 µM
same,Kd,HLA-B*48:01; [17],0.99 µM
same,Kd,HLA-B*46:01 [5]; [17],≥ 20 µM
same,Kd,HLA-B*58:01; [17],≥ 20 µM
same,Kd,HLA-A*01:01; [17],≥ 20 µM
same,Kd,HLA-A*11:01; [17],≥ 20 µM
same,Kd,HLA-A*02:01; [17],≥ 20 µM
same,Kd,HLA-B*57:01; [17],≥ 20 µM
same,Kd,HLA-A*69:01; [17],≥ 20 µM
same,Kd,HLA-B*15:17,≥ 20 µM
same,Kd,HLA-B*39:01; source organism: Influenza A virus(A/swine/Shandong/fZC/2003(H9N2)),≥ 20 µM
same,Kd,HLA-B*15:01; [17],0.116 µM
